What was measured:
Test in all cases: yeast 2-hybrid; - means 60-100% of the wild type interaction
[1] = biological target: T1, human β-catenin (Leu218-Leu781) mutant Arg 342 to alanine, Gal-4 activation domain fusion (human, UniProt P35222 218-781)
T1 sequence: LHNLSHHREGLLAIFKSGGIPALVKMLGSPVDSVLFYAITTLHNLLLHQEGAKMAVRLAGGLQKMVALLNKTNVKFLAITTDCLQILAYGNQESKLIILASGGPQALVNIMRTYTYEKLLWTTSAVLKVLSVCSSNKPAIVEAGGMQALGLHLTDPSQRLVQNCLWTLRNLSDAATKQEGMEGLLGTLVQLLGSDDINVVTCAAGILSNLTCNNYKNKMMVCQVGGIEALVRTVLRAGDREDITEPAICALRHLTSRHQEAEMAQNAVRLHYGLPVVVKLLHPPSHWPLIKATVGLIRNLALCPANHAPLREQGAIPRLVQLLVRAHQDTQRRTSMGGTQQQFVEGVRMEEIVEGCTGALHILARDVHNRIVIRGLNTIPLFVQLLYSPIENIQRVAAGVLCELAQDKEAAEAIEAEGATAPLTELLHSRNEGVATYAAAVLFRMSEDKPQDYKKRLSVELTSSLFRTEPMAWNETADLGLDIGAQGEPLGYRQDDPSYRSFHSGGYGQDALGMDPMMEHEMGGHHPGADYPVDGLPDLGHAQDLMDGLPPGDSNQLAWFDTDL
Experimental: (§1) 4. Preparation and testing of mutants of β-catenin modulating the interaction with LEF-1, APC, conductin or E-cadherin The mutagenesis of β-catenin in the armadillo repeats 3–8 was carried out by means of the "mutagenesis kit" of the company Clontech according to the producer's record and the mutants were checked by sequencing (FIG. 5). In all mutants the original amino acid was substituted by alanine. For analyzing the interactions the cDNA of human β-catenin (armadillo repeat 3 up to the C-terminal end of the protein) coding for the amino acids Leu218–Leu7 µl or its mutants was cloned into the fusion vector for the activation domain of Gal-4 (pGAD424, Clontech). The cDNA for the binding domains of the interaction partners was cloned into the Lex-A fusion vector BTM 116. To this end, the cDNA of LEF-1 for the amino acids 1–99, conductin for the amino acids Ala342–ARG465; of human APC for the amino acids His1012–Glu1215 (APC 15 amino acid repeats) and for the amino acids Ser1259Asp 1400 (APC 20 amino acid repeats) and E-cadherin for the amino acids Gin773–Asp884 (cytoplasmatic domain) were amplified with the respective primers PCR. The interaction of the Lex-A hybrids with β-catenin and its mutants was quantified by means of the β-galactosidase reporter activity in the yeast 2-hybrid system (report: "Matchmaker". Clontech) (Tab. 2 and FIG. 6).

[2] = biological target: T2, human β-catenin (Leu218-Leu781) mutant Lys 394 to alanine, Gal-4 activation domain fusion (human, UniProt P35222 218-781)
T2 sequence: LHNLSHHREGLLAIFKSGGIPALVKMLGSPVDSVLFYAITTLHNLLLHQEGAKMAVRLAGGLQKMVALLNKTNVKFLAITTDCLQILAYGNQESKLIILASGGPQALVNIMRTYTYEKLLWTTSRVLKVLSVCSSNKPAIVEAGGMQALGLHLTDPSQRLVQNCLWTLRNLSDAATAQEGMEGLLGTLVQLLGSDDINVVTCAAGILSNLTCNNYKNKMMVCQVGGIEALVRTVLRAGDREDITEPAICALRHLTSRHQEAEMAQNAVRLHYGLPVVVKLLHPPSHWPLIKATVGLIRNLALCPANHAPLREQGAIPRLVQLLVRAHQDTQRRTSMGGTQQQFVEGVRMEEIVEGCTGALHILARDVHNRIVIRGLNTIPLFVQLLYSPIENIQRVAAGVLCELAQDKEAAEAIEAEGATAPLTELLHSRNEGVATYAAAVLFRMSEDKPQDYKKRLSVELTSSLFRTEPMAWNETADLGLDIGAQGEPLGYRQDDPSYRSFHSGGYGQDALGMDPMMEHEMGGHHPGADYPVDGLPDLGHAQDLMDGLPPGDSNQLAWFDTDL
Experimental: as §1

[3] = biological target: T3, human β-catenin (Leu218-Leu781) mutant Lys 435 to alanine, Gal-4 activation domain fusion (human, UniProt P35222 218-781)
T3 sequence: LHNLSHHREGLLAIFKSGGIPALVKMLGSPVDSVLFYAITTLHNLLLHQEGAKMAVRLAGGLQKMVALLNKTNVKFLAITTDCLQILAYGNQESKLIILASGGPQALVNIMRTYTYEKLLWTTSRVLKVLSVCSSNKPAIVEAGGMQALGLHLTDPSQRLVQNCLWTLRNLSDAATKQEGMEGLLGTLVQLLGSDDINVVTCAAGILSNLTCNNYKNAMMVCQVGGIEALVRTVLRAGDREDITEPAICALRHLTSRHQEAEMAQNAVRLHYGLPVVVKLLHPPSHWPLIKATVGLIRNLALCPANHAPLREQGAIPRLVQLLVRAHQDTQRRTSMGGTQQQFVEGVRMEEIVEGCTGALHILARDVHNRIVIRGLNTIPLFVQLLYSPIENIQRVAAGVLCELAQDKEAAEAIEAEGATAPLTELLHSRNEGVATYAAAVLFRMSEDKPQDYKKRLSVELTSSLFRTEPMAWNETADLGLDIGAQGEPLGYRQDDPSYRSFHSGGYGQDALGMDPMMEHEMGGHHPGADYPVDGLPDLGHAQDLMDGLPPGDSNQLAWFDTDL
Experimental: as §1

Measured: binding result

B1: LEF-1 amino acids 1-99 fused to Lex-A (vector BTM 116) (other, UniProt P0A7C2 1-202, looked up)
chain: MKALTARQQEVFDLIRDHISQTGMPPTRAEIAQRLGFRSPNAAEEHLKALARKGVIEIVSGASRGIRLLQEEEEGLPLVGRVAAGEPLLAQQHIEGHYQVDPSLFKPNADFLLRVSGMSMKDIGIMDGDLLAVHKTQDVRNGQVVVARIDDEVTVKRLKKQGNKVELLPENSEFKPIVVDLRQQSFTIEGLAVGVIRNGDWLMPQLSGGGGGGDPELCATDEMIPFKDEGDPQKEKIFAEISHPEEEGDLADIKSSLVNESEIIPASNGHEVVRQAPSSQEPYHDKAREHPDEGKHPDGGL
notes: Order of the fusion follows the vector; also called LEF-1/TCF-4
binds: all assays above
